Among the targets are RSVF Cav1only; sc9-10 Cav1only; sc9-10 Cav1only 98-361; sc9-10 Cav1only 99-361; sc9-10 Cav1only 100-361; sc9-10 Cav1only 98-362; sc9-10 Cav1only 99-362; sc9-10 Cav1only 100-362; sc9-10 Cav1only 146-458; sc9-10 Cav1only 369-455.
Common to all, as to assay: ELISA after 1 week at 4 °C
Experiment [1] deals with sc9-10 A149C Y458C Long CAV1only.
The target in experiment [2] is sc9-10 N183GC N428C Long CAV1only.

B1: D25 antibody (antibody, V domains shown)
VH: QVQLVQSGAEVKKPGSSVMVSCQASGGPLRNYIINWLRQAPGQGPEWMGGIIPVLGTVHYAPKFQGRVTITADESTDTAYIHLISLRSEDTAMYYCATETALVVSTTYLPHYFDNWGQGTLVTVSS
VL: DIQMTQSPSSLSAAVGDRVTITCQASQDIVNYLNWYQQKPGKAPKLLIYVASNLETGVPSRFSGSGSGTDFSLTISSLQPEDVATYYCQQYDNLPLTFGGGTKVEIKR
For the molecule B1, the “ELISA signal (antigenicity)” value with RSVF Cav1only came out at 3.33; with sc9-10 Cav1only, 3.6; with sc9-10 Cav1only 98-361, 1.84; with sc9-10 Cav1only 99-361, 2.89; with sc9-10 Cav1only 100-361 it was 0.92; in the experiment with sc9-10 Cav1only 98-362 it was 0.957. Besides, the “ELISA signal (antigenicity)” value with sc9-10 Cav1only 99-362 is 1.39; in the experiment with sc9-10 Cav1only 100-362, 0.416; in the experiment with sc9-10 Cav1only 146-458 it was 2.34; in the experiment with sc9-10 Cav1only 369-455, 2.94; in experiment [1], 2.88; in experiment [2] it was 0.502.

The values are drawn from US20190112340A1 (US Dept. of Health and Human Services, published 2019).
